Measured values reported in US9969998B2, “Compositions of adenosine deaminase-2 (ADA2), variants thereof and methods of using same” (Halozyme, Inc., priority 2014, dated 2018).

Columns and labels:
[1] = Thermal stability, melting temperature (Tm) by differential scanning fluorimetry; type: physicochemical; conditions: compared to ADA1
Text: Proteins differ in their degrees of thermal stability (or thermostability). In particular, proteins with biological activities, such as enzymes, can have different optimal temperatures. Thermostability, the quality of a protein to resist irreversible change in its chemical or physical structure at a relatively high temperature, can be indicative of overall stability of a protein. Increased temperature usually induces protein unfolding, and disruption of secondary, tertiary and quaternary structure of proteins, leading to destabilization of protein. Thermostability of a protein, such as any ADA2 polypeptide provided herein, can be determined by measuring the changes in enzymatic activity and/or other physical properties, before and after incubation in relatively high or low temperatures.
The stability of a protein can be determined by measuring the activity of the protein as a function of time. The melting temperature (Tm) of the protein can be used as a marker of solution stability and in vivo stability for proteins. The unfolding temperature of a particular protein refers to that temperature at which the protein loses its secondary structure and typically, its activity and can be determined using methods known to those of skill in the art and described herein, such as differential scanning calorimetry […]. […] In other examples, the thermal stability can be measured biochemically. […]

[2] = system: NK/T cells; experiment: rHuADA2 rescue of adenosine-mediated inhibition of NK/T cell proliferation; type: cell-based, human
Description: A mixture of NK and T cells (NK/T) were prepared from healthy donor's peripheral blood mononuclear cells (PBMC). Briefly, 10×10^7 HumanPBMCs were cultured for 6-7 days in Stem cell growth medium (SCGM; Order No. 20802-0500, CellGenix, Freiburg, Germany) with 5% human serum from donors with blood type AB (human AB serum; Cat. No. 35-060-C1, Mediatech, Mannassas, Va.) in the presence of 20 ng/mL anti-CD3 eBioscience, San Diego, Calif.; Cat. No. 16-0039) and 500 IU/mL recombinant human interleukin 2 (rhIL-2; Cat. No. 200-02, PeproTech, Rocky Hill, N.J.). The cells were then cultured for an additional 2-3 weeks in SCGM in the presence of 500 IU/mL rhIL-2. NK/T cells cultured for 2-4 weeks were used in experiments.
NK/T cells (10,000 cells/well) were plated in 96 well white plates with clear bottoms in a total volume of 180 μL. The cells were treated with 20 μL rHuADA2 at concentrations resulting from 3-fold dilution series, to give a final rHuADA2 concentration of 100 nM, 30 nM, 10 nM, 3 nM, 1 nM, 0.3 nM, 0.1 nM, and 0.03 nm, and then each well also was treated with 20 μL of adenosine at 1 mM. After treatment, the NK/T cells were cultured, processed and luminescence measured as described above. The mean cell survival (%) was determined by comparison of the measured luminescence to control cells not treated with adenosine or rHuADA2.
Experiments also were performed to assess the effect of rHuADA2 to reverse adenosine-mediated inhibition of NK/T cell proliferation at various concentrations of adenosine. The experiments were conducted in a similar manner as described above, with final adenosine concentration of 1 mM, 100, 50, or 25 μM and final rHuADA2 concentration of 100 nM, 30 nM, 10 nM, 3 nM, 1 nM, 0.3 nM, 0.1 nM, and 0.03 nM.

[3] = Daddona and Kelley (1981); cited from earlier work

B1: ADA2: wild-type human adenosine deaminase 2, mature form SEQ ID NO:5, homodimer (protein, listed as Homo sapiens)
chain: IDETRAHLLLKEKMMRLGGRLVLNTKEELANERLMTLKIAEMKEAMRTLIFPPSMHFFQAKHLIERSQVFNILRMMPKGAALHLHDIGIVTMDWLVRNVTYRPHCHICFTPRGIMQFRFAHPTPRPSEKCSKWILLEDYRKRVQNVTEFDDSLLRNFTLVTQHPEVIYTNQNVVWSKFETIFFTISGLIHYAPVFRDYVFRSMQEFYEDNVLYMEIRARLLPVYELSGEHHDEEWSVKTYQEVAQKFVETHPEFIGIKIIYSDHRSKDVAVIAESIRMAMGLRIKFPTVVAGFDLVGHEDTGHSLHDYKEALMIPAKDGVKLPYFFHAGETDWQGTSIDRNILDALMLNTTRIGHGFALSKHPAVRTYSWKKDIPIEVCPISNQVLKLVSDLRNHPVATLMATGHPMVISSDDPAMFGAKGLSYDFYEVFMGIGGMKADLRTLKQLAMNSIKYSTLLESEKNTFMEIWKKRWDKFIADVATK
modifications: ADA2 mature protein
thermal stability [1]: higher thermal stability
MS % (mean survival) ([2]; ADA2 0.03 nM, 25 μM Adenosine): 81.7%
MS % (mean survival) ([2]; ADA2 0.03 nM, 50 μM Adenosine): 71.2%
MS % (mean survival) ([2]; ADA2 0.03 nM, 100 μM Adenosine): 45.9%
MS % (mean survival) ([2]; ADA2 0.03 nM, 1 mM Adenosine): 15.6%
MS % (mean survival) ([2]; ADA2 0.1 nM, 25 μM Adenosine): 89.6%
MS % (mean survival) ([2]; ADA2 0.1 nM, 50 μM Adenosine): 76.6%
MS % (mean survival) ([2]; ADA2 0.1 nM, 100 μM Adenosine): 43.8%
MS % (mean survival) ([2]; ADA2 0.1 nM, 1 mM Adenosine): 16.3%
MS % (mean survival) ([2]; ADA2 0.3 nM, 25 μM Adenosine): 90.5%
MS % (mean survival) ([2]; ADA2 0.3 nM, 50 μM Adenosine): 64.8%
MS % (mean survival) ([2]; ADA2 0.3 nM, 100 μM Adenosine): 57.8%
MS % (mean survival) ([2]; ADA2 0.3 nM, 1 mM Adenosine): 18.3%
MS % (mean survival) ([2]; ADA2 1 nM, 25 μM Adenosine): 99.3%
MS % (mean survival) ([2]; ADA2 1 nM, 50 μM Adenosine): 80.2%
MS % (mean survival) ([2]; ADA2 1 nM, 100 μM Adenosine): 71.7%
MS % (mean survival) ([2]; ADA2 1 nM, 1 mM Adenosine): 22.6%
MS % (mean survival) ([2]; ADA2 3 nM, 25 μM Adenosine): 107.4%
MS % (mean survival) ([2]; ADA2 3 nM, 50 μM Adenosine): 94%
MS % (mean survival) ([2]; ADA2 3 nM, 100 μM Adenosine): 91.6%
MS % (mean survival) ([2]; ADA2 3 nM, 1 mM Adenosine): 41.4%
MS % (mean survival) ([2]; ADA2 10 nM, 25 μM Adenosine): 121.2%
MS % (mean survival) ([2]; ADA2 10 nM, 50 μM Adenosine): 105.9%
MS % (mean survival) ([2]; ADA2 10 nM, 100 μM Adenosine): 108.3%
MS % (mean survival) ([2]; ADA2 10 nM, 1 mM Adenosine): 67.1%
MS % (mean survival) ([2]; ADA2 30 nM, 25 μM Adenosine): 117.2%
MS % (mean survival) ([2]; ADA2 30 nM, 50 μM Adenosine): 114.7%
MS % (mean survival) ([2]; ADA2 30 nM, 100 μM Adenosine): 114.4%
MS % (mean survival) ([2]; ADA2 30 nM, 1 mM Adenosine): 79.1%
MS % (mean survival) ([2]; ADA2 100 nM, 25 μM Adenosine): 120.6%
MS % (mean survival) ([2]; ADA2 100 nM, 50 μM Adenosine): 116.9%
MS % (mean survival) ([2]; ADA2 100 nM, 100 μM Adenosine): 109%
MS % (mean survival) ([2]; ADA2 100 nM, 1 mM Adenosine): 96.3%
stability at higher temperature [3]: substantially more stable at higher temperature compared to ADA1
